Source: publication PMC9977887, “Crocodile defensin (CpoBD13) antifungal activity via pH-dependent phospholipid targeting and membrane disruption” (Nature Communications, 2023)
Read-outs that look alike come from different tables or passages of the source.

Key:
[1] = target: PC:PA liposomes (95:5 molar ratio PC:PA); test: liposome pulldown; conditions: 1 µg peptide, 95:5 molar ratio PC:PA, read off a plot
PC only liposomes = test: liposome pulldown; conditions: 1 µg peptide, PC only, read off a plot
[2] = Calcein-encapsulated liposome lysis assay; type: biochemical
Procedure: (§1) Liposomes were prepared using natural chicken egg L-α-phophatidylcholine and L-α-phosphatidic acid dissolved in chloroform (Avanti Polar Lipids), and liposome pulldowns (at pH 7.4) and calcein-encapsulated liposome lysis assays were performed as previously described. For liposome pulldowns performed at pH 5.5, the same protocol was used with minor variations. The desiccated lipid films were resuspended in 20 mM MES pH 7.4 and were washed in the same buffer during the centrifugation process. After the final wash step, the liposome pellets were resuspended in 20 mM MES pH 5.5 and incubated with CpoBD13 or mutants thereof (also prepared in the same acidic buffer).

Liposome pulldown = type: binding; conditions: 1 µg defensin; for Fraction of total protein (%), bound fraction: pH 5.5 (20 mM MES); for Fraction of total protein (%), Bound: pH 7.4
Procedure: as §1

C. albicans ATCC 10231 = test: Fungal growth inhibition assay; type: cell-based, Candida albicans; conditions: 24 h; for IC50: unit not in table, µM, read-out: IC50
Procedure: For fungal growth assays, overnight cultures of C. albicans ATCC 10231 cells (yeast peptone dextrose broth, 30°C, shaking at 160 rpm) were pelleted (2000 g, 5 min), washed once in 0.5× potato dextrose broth (BD Biosciences, Franklin Lakes, NJ) and finally resuspended in the same media. Cells were seeded onto a 96-well plate (400 cells, 50 µL) and treated with an equal volume of varying concentrations of defensin in 0.5× potato dextrose broth. After incubating the samples (24 h, 30 °C), the plates were shaken to distribute the cells and growth was determined by performing a 9-well scan (600 nm) using a Spectramax M5e microplate reader (Molecular Devices, San Jose, CA). For assays testing defensin salt tolerance, C. albicans cells were instead resuspended in 1x potato dextrose broth and treated with an equal volume of CpoBD13 + NaCl solution at their intended concentrations. Propidium iodide (PI) uptake assays were performed by preparing the cells as per the standard growth inhibition assay however they were instead seeded onto a U-bottom 96-well plate (50,000 cells, 25 µL). […] For PI uptake experiments performed at a specific pH, the same method was followed with the exception that cells were resuspended in 1× potato dextrose broth while defensin titrations were diluted in 40 mM MES buffer at the intended pH. An example PI uptake gating strategy is presented in Supplementary Fig. 1d.

[3] = target: the molecule itself; test: cross-linking; BS(PEG)5 cross-linker; CpoBD13 (1 mg/mL stock) with 0 or 23 µM phosphatidic acid (08:0 PA; 0 or 0.092 mM stock), 20 mM HEPES pH 7.1, 30 min; SDS-PAGE and colloidal Coomassie
[4] = target: the molecule itself; test: cross-linking; BS(PEG)5 cross-linker; CpoBD13 or mutant (1 mg/mL stock) with 115 µM phosphatidic acid (08:0 PA; 0.46 mM stock), 20 mM HEPES pH 7.1, 30 min; SDS-PAGE and colloidal Coomassie
[5] = PC:PA 95:5 liposomes, replicate 1
[6] = PC:PA 95:5 liposomes, replicate 2
[7] = PC:PA 95:5 liposomes, replicate 3

Work on “Crocodylus porosus β-defensin 13 (CpoBD13) (from UniProt A0A7G6KN55) H33A” yielded a response (% (fraction of total)) ([1]; pH 5.5, parent: est. 88) of 78, a response (% (fraction of total)) ([1]; pH 7.4, parent: est. 43) of 38 and a response (% (fraction of total)) (PC only liposomes; pH 5.5, parent: est. 20) of 20. It also gave a response (% (fraction of total)) (PC only liposomes; pH 7.4, parent: est. 15) of 18.

Molecule “Crocodylus porosus β-defensin 13 (CpoBD13) (from UniProt A0A7G6KN55) R17A” has a response (% (fraction of total)) ([1]; pH 5.5, parent: est. 88) of 87, a response (% (fraction of total)) ([1]; pH 7.4, parent: est. 43) of 26 and a response (% (fraction of total)) (PC only liposomes; pH 5.5, parent: est. 20) of 22. It also gave a response (% (fraction of total)) (PC only liposomes; pH 7.4, parent: est. 15) of 13.

With “Crocodylus porosus β-defensin 13 (CpoBD13) (from UniProt A0A7G6KN55) H35A” the response (% (fraction of total)) ([1]; pH 5.5, parent: est. 88) was 90, the response (% (fraction of total)) ([1]; pH 7.4, parent: est. 43) was 42 and the response (% (fraction of total)) (PC only liposomes; pH 5.5, parent: est. 20) was 18. It also gave a response (% (fraction of total)) (PC only liposomes; pH 7.4, parent: est. 15) of 15.

“Crocodylus porosus β-defensin 13 (CpoBD13) (from UniProt A0A7G6KN55) R9A” showed a response (% (fraction of total)) ([1]; pH 5.5, parent: est. 88) of 80, a response (% (fraction of total)) ([1]; pH 7.4, parent: est. 43) of 17 and a response (% (fraction of total)) (PC only liposomes; pH 5.5, parent: est. 20) of 34. It also gave a response (% (fraction of total)) (PC only liposomes; pH 7.4, parent: est. 15) of 10.

In the case of “CpoBD13 (H35A): CpoBD13 point mutant H35A”, the “Lysis (%)” value ([2]; PC liposomes, replicate 1) is reported as 59.2077%, the “Lysis (%)” value ([2]; PC liposomes, replicate 2) is reported as 47.882% and the “Lysis (%)” value ([2]; PC liposomes, replicate 3) is reported as 48.469%. For the same molecule, the “Lysis (%)” value ([2]; PC:PA liposomes, replicate 1) was 63.0445%, the “Lysis (%)” value ([2]; PC:PA liposomes, replicate 2) was 68.1197% and the “Lysis (%)” value ([2]; PC:PA liposomes, replicate 3) was 58.6174%. For the same molecule, the “Fraction of total protein (%), bound fraction” value (shortened to “Fraction … (%), bound fraction”) (Liposome pulldown; PC only liposomes, replicate 1) was 23.8871%, the “Fraction … (%), bound fraction” value (Liposome pulldown; PC only liposomes, replicate 2) was 10.4017% and the “Fraction … (%), bound fraction” value (Liposome pulldown; PC only liposomes, replicate 3) was 20.2373%. The “Fraction of total protein (%), Bound” value (Liposome pulldown; PC only liposomes, replicate 1) was 14.047%, the “Fraction of total protein (%), Bound” value (Liposome pulldown; PC only liposomes, replicate 2) was 12.1176% and the “Fraction of total protein (%), Bound” value (Liposome pulldown; PC only liposomes, replicate 3) was 23.9918%. The “Fraction … (%), bound fraction” value (Liposome pulldown; [5]) was 106.585%, the “Fraction … (%), bound fraction” value (Liposome pulldown; [6]) was 65.0801% and the “Fraction … (%), bound fraction” value (Liposome pulldown; [7]) was 97.4485%. The “Fraction of total protein (%), Bound” value (Liposome pulldown; [5]) was 42.5181%, the “Fraction of total protein (%), Bound” value (Liposome pulldown; [6]) was 53.6354% and the “Fraction of total protein (%), Bound” value (Liposome pulldown; [7]) was 32.306%. For the same molecule, the “fungal growth inhibition activity compared to the wild type” value (C. albicans ATCC 10231; IC50 comparison, two-tailed unpaired t test) was “No significant differences”, the IC50 (C. albicans ATCC 10231; Replicate 1) was 4.14 µM and the IC50 (C. albicans ATCC 10231; Replicate 2) was 4.17 µM. The IC50 (C. albicans ATCC 10231; Replicate 3) was 4.2 µM.

Work on “Crocodylus porosus β-defensin 13 (CpoBD13) (from UniProt A0A7G6KN55) H21A” yielded a response (% (fraction of total)) ([1]; pH 5.5, parent: est. 88) of 69, a response (% (fraction of total)) ([1]; pH 7.4, parent: est. 43) of 38 and a response (% (fraction of total)) (PC only liposomes; pH 5.5, parent: est. 20) of 15. It also gave a response (% (fraction of total)) (PC only liposomes; pH 7.4, parent: est. 15) of 23.

B1: Crocodylus porosus β-defensin 13 (CpoBD13) (peptide, UniProt A0A7G6KN55 22-61, looked up)
chain: NGSYYSTLQCRNNHGHCRRLCFHGEQWIGNCNGRHQHCCK
notes: Crocodylus porosus β-defensin 13, mature defensin domain (nucleotides 142-255 of XM_019537183.1, limits set with SignalP); 114 nucleotides would give 38 residues; Three disulphide bonds; also called wild type CpoBD13; saltwater crocodile defensin; source: Pichia pastoris (pPIC9 vector), purified by cation exchange chromatography
With B1 the “stoichiometry N” value [3] was 2 and the “stoichiometry N” value [4] was at most 5.
